Tested on: CPFX-treated juvenile rats
Settings: rat, in vivo
Description: Thus, the effect of the TβII-SE isoform was analyzed either in CPFX-treated juvenile rats (24 days old) or untreated rats, by intra-articular injections of lentiviral vectors encoding a recombinant protein of the codon-optimized (co) TβRII-SE fused to the constant fragment (Fc) of the human immunoglobulin 1 (IgG1) (Lt.coTβRII-SE/Fc) or the enhanced green fluorescent protein (Lt.eGFP).
Male 24-day-old Wistar rats were housed under controlled conditions at 21±1° C. with 50%±5% relative humidity and a constant light-dark schedule (light, 8 a.m. to 8 p.m.). Food and tap water was provided ad libitum. The rats received ciprofloxacin hydrochloride on day 24 by oral administration of 200 mg/kg of body weight during 10 days. The animals were examined for clinical abnormalities including motility alterations and weighted during the treatment period.
On day 14 after ciprofloxacin treatment, 50 μl viral vectors were injected intra-articularly with either Lt.coTBRII-SE/Fc (2.35×10^6 transducing Units, TU) or Lt.eGFP (6×10^6 TU). Control animals without ciprofloxacin were treated in the same manner.

With “coTβRII-SE/Fc: fusion peptide of codon-optimized TβRII-SE and the human IgG1 Fc region, SEQ ID No. 6” the “X-ray images of knees” value was “radiolucent images with irregular borders in the femoral condyle”.

— patent US11072647B2, “TGF-receptor II isoform, fusion peptide, methods of treatment and methods in vitro” (Onsejo Nacional DE Investigation Cientiticay Tecnica, priority 2013, dated 2021)
